Test results published in PMC6989304.

Target: Pinhead-HA (secreted, in conditioned medium of HEK293T cells) (zebrafish)
Experiment: reducing and non-reducing SDS-PAGE with immunoblot

stoichiometry N: 2
Substance: Pinhead-HA (secreted, in conditioned medium of HEK293T cells) (ligand)
